Data set [1] addresses T1, CUGBP1-Flag (UniProt Q92879 1-486). In words: EMSA.
For data set [2], the target named is T1, CUGBP1-Flag. The data set can be described thus: EMSA. The source holds these as a separate data set. For orientation: Mobility shift assays separate free from complexed probe on a gel.

Read-outs that look alike come from different tables or passages of the source.

T1 sequence (Q92879 whole entry): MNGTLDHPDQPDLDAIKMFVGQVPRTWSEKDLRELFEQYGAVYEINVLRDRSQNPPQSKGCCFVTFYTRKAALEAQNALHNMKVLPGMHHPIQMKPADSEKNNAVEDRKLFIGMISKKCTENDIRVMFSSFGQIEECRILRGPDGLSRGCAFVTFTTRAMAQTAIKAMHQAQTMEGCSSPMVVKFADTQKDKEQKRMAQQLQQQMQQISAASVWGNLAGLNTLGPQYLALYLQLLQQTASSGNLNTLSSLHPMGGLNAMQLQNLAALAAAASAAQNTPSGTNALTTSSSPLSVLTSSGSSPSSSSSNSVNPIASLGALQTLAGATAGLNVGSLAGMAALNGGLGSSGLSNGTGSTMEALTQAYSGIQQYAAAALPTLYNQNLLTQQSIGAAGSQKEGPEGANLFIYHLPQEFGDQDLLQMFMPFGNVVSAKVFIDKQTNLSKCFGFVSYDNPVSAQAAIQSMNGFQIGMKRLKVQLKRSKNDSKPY

B1: miR-122 23-nt (3'-a) (ssRNA)
RNA: UGGAGUGUGACAAUGGUGUUUGA
For the molecule B1, the binding result with CUGBP1-Flag [1] was “binds”.

B2: miR-122 17-22C (ssRNA)
RNA: UGGAGUGUGACAAUGGCCCCCC
Take B2: in the data set with CUGBP1-Flag [1], the binding result is recorded as “no binding”.

B3: miR-16 (ssRNA)
RNA: UAGCAGCACGUAAAUAUUGGCG
In the case of B3, the binding result with CUGBP1-Flag [2] was “no binding”.

B4: miR-122 27-nt (3'-a5) (ssRNA)
RNA: UGGAGUGUGACAAUGGUGUUUGAAAAA
On to B4, for which the binding result with CUGBP1-Flag [1] was “binds”.

These data come from publication PMC4551920.
